According to patent publication US20140256625A1, “ANTI-AMYLOIDOGENIC, ALPHA-HELIX BREAKING ULTRA-SMALL PEPTIDE THERAPEUTICS” (AGENCY FOR SCIENCE, TECHNOLOGY AND RESEARCH, priority 2011, published 2014):
Ends that are not written are not given here.

Biological target: Ac-KE7 (Homo sapiens, UniProt P05067)
Test: Rheology of Ac-KE7 mixed with inhibitor (storage modulus, gel vs solution)
Format: physicochemical
Settings: 1.5 mM Ac-KE7 mixed with inhibitor in 1:20 molar ratio, 25° C.
From the text: Rheology. To determine the viscoelastic properties/behaviour, peptide-based hydrogels were subjected to dynamic time, strain and frequency sweep experiments using the ARES-G2 rheometer (TA Instruments, Piscataway, N.J.) with a 25.0 mm diameter stainless steel or titanium parallel plate geometry and a 0.8 mm or 1-2 mm gap distance. To ensure complete gelation and take account of the varying gelation speeds of different peptides at different concentrations, the rheology measurements were done 2 months after sample preparation. Oscillatory frequency sweep studies (measuring storage modulus (G′) vs. Angular frequency (ω)) were done at 0.1-100 rad/s using 1% strain. Oscillatory amplitude sweep studies (measuring storage modulus (G′) vs. oscillation strain % (γ)) were done using 0.01-100% strain with a constant angular frequency of 1 rad/s. All measurements were carried out at 25° C. […] The graphs display the storage moduli (G′ in Pa) as a function of (A) angular frequency (rad/sec) under 1% strain and (B) oscillation strain (%) at an angular frequency of 1 rad/sec at room temperature of 25° C. […] This can be seen from the rheological data, where the peptide-inhibitor solutions give a highly fluctuating curve for both the amplitude and frequency sweep measurements because they are in solution form; instead of a gel form.

Ac-LPE (Ac-Leu-Pro-Glu) [N-acetylated tripeptide Leu-Pro-Glu]
hydrogel formation of Ac-KE7 (rheology): no gelation

Ac-LPG (Ac-Leu-Pro-Gly) [N-acetylated tripeptide Leu-Pro-Gly]
hydrogel formation of Ac-KE7 (rheology): no gelation
